Results from patent publication US20190023785A1 (SHANGHAI JIAOTONG UNIVERSITY, published 2019).

Experiments:
[1] = molecular target: GLP-1R expressed on CRE-Luc/GLP-1R HEK293 cells
hFcRn&b2M protein = molecular target: T1, hFcRn&b2M protein (human, UniProt P61769 21-119, limits assumed); test: binding affinity to hFcRn & b2M at pH 6.0, method not named; pH 6.0; soluble hFcRn & b2M as ligand
T1 construct: also called hFcRn&β2M; human FcRn protein
T1 sequence (chain, as listed by the source limits assumed, chain 1 of 2): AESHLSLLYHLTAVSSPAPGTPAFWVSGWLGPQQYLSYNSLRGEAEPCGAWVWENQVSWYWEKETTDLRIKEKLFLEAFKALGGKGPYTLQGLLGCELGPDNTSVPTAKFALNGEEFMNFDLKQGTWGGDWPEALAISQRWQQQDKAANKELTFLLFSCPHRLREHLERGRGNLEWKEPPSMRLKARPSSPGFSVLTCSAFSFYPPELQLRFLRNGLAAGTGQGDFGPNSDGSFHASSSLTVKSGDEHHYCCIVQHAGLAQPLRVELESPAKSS
T1 sequence (P61769 21-119 limits assumed, chain 2 of 2): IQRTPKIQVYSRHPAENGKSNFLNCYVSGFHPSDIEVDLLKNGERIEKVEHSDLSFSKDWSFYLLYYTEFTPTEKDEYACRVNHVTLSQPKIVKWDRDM

Molecule | EC50, relative luciferase activity in CRE-Luc/GLP-1R HEK293 reporter cells [1] [nM] | Kd (hFcRn&b2M protein) [nM]
GLP-1 (peptide) | 3.89 | –
FnAb12 single chain antibody (scFv, Single chain antibody from a phage library) scFv: DIQLTQSPSSLSASVGDRVTLTCQATQDIDNNLNWYQQKPGKAPKLLIYDASNLETGVPSRFSGSGSGTDFTFTISDLQPEDVATYYCQQYYNLPLTFGGGTKVDIKRSRGGGGSGGGGSGGGGSLEMAEVQLVQSGAEVKKPGASVKVSCKASGYTFTSYDINWVRQATGQGLEWMGWMNPNSGNTGYAQKFQGRVTMTRNTSISTAYMELSSLRSEDTAVYYCARGVDLGDGWGQGTLVTVSS | – | 15
